The data set is described as follows: soluble on expression in E. coli; label from the status in PepcDB or PDB records.
On to “MKKAVVLLSGGMDSATTLAIARQSGFACYALSIDYGQRHVAELAAAARIGQSLQVSDHQFLKLDLAVLASSVLTDISATVPLHGTSTGIPVTYVPARNTIMLALALAWAEVLGSHDIFIGVTAVDYSGYPDCRRDYIDAFEKMANLATKAGREGMVLTVHAPLIDLPKREIIQCGMELGIDYGLTVSCYQADEAGYACGQCDACHIRRAGFEAADIPDPTCYRNKQIS”, for which the “soluble on expression in E. coli” value is listed as “not soluble”. For the sequence “MKIISEGETKLMVPEESTLSKKDTVFYNPVMETNRDISVSVVQSFLDDFKRDEFLMCDPLGGSGARGIRYAKELKFNGDLKVSIGDINPSAVKMIKENLKLNELENVEVFHEDANVLLSKNFKVFNVVDLDPFGSPVPYLDSGIRASLTKGGLLCMTATDTAVLCGAYRKTCIRKYNAVPLKGDKELAVRLMIGYAVKMASKYDIGLKPIFSHVTDHYARTFMVTERGAGKADSAIENLGYIRQDSEQKSFKTFEEGSEKGYAGPFYLGEISDKNIVQNALNTAKTRNYSKRAVNILEMISRESEINQVGCFDIHELCSFIKKLVPPVNDIMENLKENGFKVTRVHYNPYGLKTDAELSDLVVLISEYHSKKYLEHHHHHH”, the “soluble on expression in E. coli” value was “not soluble”. For the sequence “MAKLYFYYSAMNAGKTTTLLQSAHNYRERGMRTLILTPKLDHRAGSGVVASRIGLRADGRIFERDTELQQLVERDIHNDGALHCVLVDEAQFLSRAQVWQLSEVVDRLRIPVLCYGLRTDFRGELFEGSQFLLAWADELEEIKTICHSGSKATMTVRVDAHGHAVQDGPQVEIGGNERYVSVSRAEFKKIMRGEGRIDPLQIALPLPVALEHHHHHH”, the “soluble on expression in E. coli” value is recorded as “not soluble”. In the case of “GMASAIIETAIPQSEMTASATSEEGQDPASSAIDGNINTMWHTKWNGSDALPQSLSVNLGKARKVSSIAITPRTSGNNGFITKYEIHAINNGVETLVAEGTWEENNLVKTVTFDSPIDAEEIKITAIQGVGGFASIAELNVYE”, the “soluble on expression in E. coli” value is recorded as “soluble”. Consider “MSKSIYEQYLQAKADNPGKYARDLATLMGISEAELTHSRVSHDAKRLKGDARALLAALEAVGEVKAITRNTYAVHEQMGRYENQHLNGHAGLILNPRNLDLRLFLNQWASAFTLTEETRHGVRHSIQFFDHQGDALHKVYVTEQTDMPAWEALLAQFITTENPELQLEPLSAPEVTEPTATDEAVDAEWRAMTDVHQFFQLLKRNNLTRQQAFRAVGNDLAYQVDNSSLTQLLNIAQQEQNEIMIFVGNRGCVQIFTGMIEKVTPHQDWINVFNQRFTLHLIETTIAESWITRKPTKDGFVTSLELFAADGTQIAQLYGQRTEGQPEQTQWRDQIARLNNKDIAA”, for which the “soluble on expression in E. coli” value is recorded as “soluble”. For “MSLKKDTSEQSVEQSEVGLSLEELIRRGARDLIERAIEVEVQQLLAEYENVRMLGGSRAVVRNGYLPAREVLTAVGNVEVRVPKVRDRSGAGVKFNSALVPPYVRRSARVSAALPWLYLKGISTGDMREALTVLLGDEAKGLSPNVVSRLKTEWASDYAGWMKRDLSGSRYVYWWADGVHTSLRGEDDARQCLLVVIGVRLDGTKELVTVGDGHRESKASWLELLRDLKARGLEVGPRLAVGDGALGFWGALDELYPETRRQRCWVHKSANVLNALNALPKSLQAKAKAQLHEIWMAPTRAAAVSAFERFVECYQAKYPKAADKLVRDRDALLAFYDFPAEHWIHLRTTNPIESTFATVRHRTTRTKNCVSRSSFLGLAFKLVQEAEKSWRRIRGVERIAELMGGVVFKDGEPVKDEGHHHHHH”, the “soluble on expression in E. coli” value is reported as “soluble”. On to “MSLNAPRIIGVIVPDIVTHFFASILNGIENMAIDNGYFVIITTSHESFEHEKRNIENLVNMRVEGIIACLSQETTDFSHFAALKEINMPLILFDRVCLTDQFSSVIADGAQSAQMATQHLLDNGSKRVAFIGGANHLDIVKRRKHGYLEALRDNRIPIEKELVVCRKIDYEEGQIATETLLSLPQPPDAILAMNDTLAFAAMEVIKRHGLRIPDDIAIIGYTDEQHANYVEPKLSAVSHQTYKMGETACQLLIDQIKGDRTVKQVVIPTHLQIRESSIEGHHHHHH”, for which the “soluble on expression in E. coli” value is “soluble”. Then “MCTDHQWINSAIRKIEADYQRSADTHLIKLDLPCVSGVDIYLKDESTHPTGSLKHRLARSLFLYGLCNGWIGPETTIIESSSGSTAVSEAYFARLLGLPFIAVMPKCTARKKIEQIQFYGGKAHLVDRSDQIYAESHRLAKELKGHYMDQFTYAERATDWRGNSNIADSIFSQMQMEQHPVPSWIVMSPGTGGTSATIGRFIRYQQYNTKLCVVDPENSVFYDYYRTRNAELTRDCGSKIEGIGRPRVEPSFIPDVVDEMRAIPDAASVATIYWLEKILGRKAGASTGTNLYGALQLACEMKRRGEQGSIVTLLCDSGERYLDTYYNSEWVKNNIGDLSKYLHKLETFSATGCLD”, with “not soluble”.

These data come from the DeepSol protein solubility set.
